Substitutions are numbered along the chain they refer to. Names and notes keep the numbering of the source.
Target: T1, PUF4 RNA-binding domain (Saccharomyces cerevisiae, UniProt P25339 537-888)
T1 sequence: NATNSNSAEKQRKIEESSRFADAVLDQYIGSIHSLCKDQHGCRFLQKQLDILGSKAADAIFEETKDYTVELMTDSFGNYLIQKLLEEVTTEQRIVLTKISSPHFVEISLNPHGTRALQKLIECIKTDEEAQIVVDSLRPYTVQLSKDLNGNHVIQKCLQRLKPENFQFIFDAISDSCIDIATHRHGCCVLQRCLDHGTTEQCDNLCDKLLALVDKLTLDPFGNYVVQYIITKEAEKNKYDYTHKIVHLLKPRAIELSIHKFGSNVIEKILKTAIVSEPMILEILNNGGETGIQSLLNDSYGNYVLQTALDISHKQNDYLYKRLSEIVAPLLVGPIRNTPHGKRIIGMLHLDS
Assay: Mg; RNA-MaP; 20 mM Na-HEPES pH 7.4, 30 mM KOAc, 0.75 mM MgCl2, 0.1% Tween-20, 5% glycerol, 0.1 mg/mL BSA, 2 mM DTT; 25 C; 0.0125-409.6 nM protein
Conditions: tags: N-His6-TEV cleaved; C-SNAP kept, Cy3B-labelled; label: tethered on chip by stalled RNA polymerase

UCUCUUUGUAAUACUAUCUCUU (ssRNA) [Ib_S1_P5E.1_K5.1_C5.1_H5.1_A5.1_[T5A]_F5.1_[T8C]_T5.1] showed a Kd of 10.3 nM.

B1: Id_ii_S2_P4E.4_K4.3_C4.2_[C-2A]_H4.3_A4.1_F4.1_T4.2_[G10A]_[T11C] (ssRNA)
RNA: UUUGAUUAAUAUGAUAUCGUUCUUUCUAUACACUAUUAACUUCUUUCUCGAUAUCAUAUUAAUCUUU
In the case of B1, the Kd is reported as 9.57 nM.

B2: Id_ii_S2_P4E.4_K4.3_C4.2_[T-1C]_H4.3_A4.1_F4.1_T4.2_[G10T]_[T11A] (ssRNA)
RNA: B1 RNA with A28C, U29C, A39U, C40A
B2 was tested, and the Kd was 594 nM.

B3: Id_ii_S2_P4E.4_K4.3_C4.2_[T-1C]_H4.3_A4.1_F4.1_T4.2_[G10A]_[T11A] (ssRNA)
RNA: B1 RNA with A28C, U29C, C40A
With B3 the Kd was greater than 2300 nM.

B4: Id_ii_S2_P4E.4_K4.3_C4.2_[T-1G]_H4.3_A4.1_F4.1_T4.2_[G10A]_[T11A] (ssRNA)
RNA: B1 RNA with A28C, U29G, C40A
For B4, the Kd was greater than 2300 nM.

B5: Id_ii_S2_P4E.4_K4.3_C4.2_[T-1C]_H4.3_A4.1_F4.1_T4.2 (ssRNA)
RNA: B1 RNA with A28C, U29C, A39G, C40U
With B5 the Kd was greater than 2300 nM.

B6: Id_ii_S2_P4E.4_K4.3_C4.2_[T-1A]_H4.3_A4.1_F4.1_T4.2_[G10A]_[T11C] (ssRNA)
RNA: B1 RNA with A28C, U29A
Binder B6 has a Kd of 2240 nM.

B7: Id_ii_S2_P4E.4_K4.3_C4.2_[T-1C]_H4.3_A4.1_F4.1_T4.2_[G10A] (ssRNA)
RNA: B1 RNA with A28C, U29C, C40U
With B7 the Kd was greater than 2300 nM.

B8: Id_ii_S2_P4E.4_K4.3_C4.2_[T-1G]_H4.3_A4.1_F4.1_T4.2_[G10A] (ssRNA)
RNA: B1 RNA with A28C, U29G, C40U
In the case of B8, the Kd is reported as greater than 2300 nM.

B9: Id_ii_S2_P4E.4_K4.3_C4.2_[T-1A]_H4.3_A4.1_F4.1_T4.2 (ssRNA)
RNA: B1 RNA with A28C, U29A, A39G, C40U
B9 gave a Kd greater than 2300 nM.

B10: Id_ii_S2_P4E.4_K4.3_C4.2_[T-1G]_H4.3_A4.1_F4.1_T4.2_[G10C] (ssRNA)
RNA: B1 RNA with A28C, U29G, A39C, C40U
In the case of B10, the Kd is reported as greater than 2300 nM.

B11: Id_ii_S2_P4E.4_K4.3_C4.2_[T-1C]_H4.3_A4.1_F4.1_T4.2_[G10T] (ssRNA)
RNA: B1 RNA with A28C, U29C, A39U, C40U
With B11 the Kd was 2050 nM.

B12: Id_ii_S2_P4E.4_K4.3_C4.2_[T-1C]_H4.3_A4.1_F4.1_T4.2_[G10C]_[T11C] (ssRNA)
RNA: B1 RNA with A28C, U29C, A39C
B12 was tested, and the Kd was greater than 2300 nM.

B13: Id_ii_S2_P4E.4_K4.3_C4.2_[T-1A]_H4.3_A4.1_F4.1_T4.2_[G10A] (ssRNA)
RNA: B1 RNA with A28C, U29A, C40U
With B13 the Kd was greater than 2300 nM.

B14: Id_ii_S2_P4E.4_K4.3_C4.2_[T-1A]_H4.3_A4.1_F4.1_T4.2_[G10C] (ssRNA)
RNA: B1 RNA with A28C, U29A, A39C, C40U
Binder B14 has a Kd greater than 2300 nM.

B15: Id_ii_S2_P4E.4_K4.3_C4.2_[T-1A]_H4.3_A4.1_F4.1_T4.2_[G10C]_[T11A] (ssRNA)
RNA: B1 RNA with A28C, U29A, A39C, C40A
In the case of B15, the Kd is reported as greater than 2300 nM.

B16: Id_ii_S2_P4E.4_K4.3_C4.2_[T-1A]_H4.3_A4.1_F4.1_T4.2_[G10T]_[T11A] (ssRNA)
RNA: B1 RNA with A28C, U29A, A39U, C40A
For B16, the Kd was 748 nM.

B17: Id_ii_S2_P4E.4_K4.3_C4.2_[T-1G]_H4.3_A4.1_F4.1_T4.2_[G10A]_[T11C] (ssRNA)
RNA: B1 RNA with A28C, U29G
With B17 the Kd was greater than 2300 nM.

B18: Id_ii_S2_P4E.4_K4.3_C4.2_[T-1G]_H4.3_A4.1_F4.1_T4.2_[G10T]_[T11C] (ssRNA)
RNA: B1 RNA with A28C, U29G, A39U
In the case of B18, the Kd is reported as greater than 2300 nM.

B19: Id_ii_S2_P4E.4_K4.3_C4.2_[T-1A]_H4.3_A4.1_F4.1_T4.2_[T11C] (ssRNA)
RNA: B1 RNA with A28C, U29A, A39G
B19 showed a Kd greater than 2300 nM.

B20: Id_ii_S2_P4E.4_K4.3_C4.2_[T-1G]_H4.3_A4.1_F4.1_T4.2_[G10T] (ssRNA)
RNA: B1 RNA with A28C, U29G, A39U, C40U
B20 was tested, and the Kd was greater than 2300 nM.

B21: Id_ii_S2_P4E.4_K4.3_C4.2_[T-1A]_H4.3_A4.1_F4.1_T4.2_[G10C]_[T11C] (ssRNA)
RNA: B1 RNA with A28C, U29A, A39C
B21 was tested, and the Kd was greater than 2300 nM.

UCUCUUUGUACUACUAUCUCUU (ssRNA) [Ib_S1_P5E.1_K5.1_C5.1_H5.1_A5.1_[T5C]_F5.1_[T8C]_T5.1] was tested, and the Kd was 10.9 nM.

Binder UCUCUUUGUACUAAUAUCUCUU (ssRNA) [Ic_S1_P5E.1_K5.1_C5.1_H5.1_A5.1_[T5C]_F5.1_[T8A]_T5.1] has a Kd of 12.5 nM.
